The target of assay [1] is CD19 antibody FMC63. Put plainly: biolayer interferometry, FMC63 immobilized. A general note: Biolayer interferometry detects binding as a change in optical thickness at a sensor tip.
For assay [2], the target named is FMC63-derived anti-CD19 28z CAR on primary T cells. Put plainly: flow cytometry, FITC-labeled protein titrated on anti-CD19 28z CAR primary T cells, four-parameter fit. Background: A flow cytometer gives signals particle by particle.
Assay [3] addresses CD19 antibody FMC63. In words: biolayer interferometry, FMC63 immobilized; stronger non-specific binding noted.
Assay [4] has as its target FMC63-scFv-41BBz CAR on Jurkat-Lucia NFAT cells. Put plainly: cell-based or functional assay.
Assay [5] has as its target CD19.1-Fc (Human). In words: direct ELISA, CD19 variant coated on plate (2D), FMC63-HRP titrated, OD450nm.
In assay [6] the target is CD19.1-Fc (Human). In words: on-bead ELISA, HRP-conjugated FMC63 titrated on CD19.1 Fc coated beads, absorbance at 450 nm, four-parameter logistic fit. A general note: ELISA stands for enzyme-linked immunosorbent assay.
Assay [7] addresses CD19.1-His (Human) (UniProt P15391). In words: on-bead fluorescence binding capacity assay; beads CD19.1-His (5.0 x moles).
Assay [8] shares this target. Put plainly: on-bead fluorescence binding capacity assay; beads CD19.1-His (1.0 x moles).
Assay [9] shares this target. In words: on-bead fluorescence binding capacity assay; beads CD19.1-His (2.0 x moles).
Assay [10] deals with WT etCD19-His (Acrobiosystems) (Human) (UniProt P15391). Put plainly: on-bead ELISA, HRP-conjugated FMC63 titrated on wtCD19 His coated beads, absorbance at 450 nm, four-parameter logistic fit.
Assay [11] deals with CD19.1-Fc (Human). Put plainly: on-bead fluorescence binding capacity assay; beads CD19.1-Fc (2.0 x moles).
In assay [12] the target is CD19.1-Fc (Human). In words: on-bead anti-CD19-FITC (FMC63) binding assay.
Assay [13] has as its target CD19.1-Fc (Human). In words: on-bead fluorescence binding capacity assay; beads CD19.1-Fc (5.0 x moles).
Assay [14] addresses CD19.1-Fc (Human). In words: on-bead fluorescence binding capacity assay; beads CD19.1-Fc (0.5 x moles).
In assay [15] the target is CD19.1-Fc (Human). In words: on-bead fluorescence binding capacity assay; beads CD19.1-Fc (1.0 x moles).
In assay [16] the target is custom-produced WT etCD19-Fc (Human; human) (UniProt P15391). In words: on-bead fluorescence binding capacity assay; wtCD19 Fc coated beads.
Assay [17] deals with CD19.1-His (Human) (UniProt P15391). In words: on-bead ELISA, HRP-conjugated FMC63 titrated on CD19.1 His coated beads, absorbance at 450 nm, four-parameter logistic fit.
For assay [18] the target is unchanged. In words: on-bead fluorescence binding capacity assay; beads CD19.1-His (0.5 x moles).
The target of assay [19] is CD19.1-Fc (Human). Put plainly: on-bead fluorescence binding capacity assay; CD19.1-Fc coated beads.

What is called Kd is the free concentration of one partner at which half of the binding sites on the other are occupied at equilibrium, for simple one-to-one binding. Read a low Kd as tighter binding. One may read the EC50 as the midpoint of the concentration-response curve. High values mean a less potent agent, low ones a more potent agent. As to CD19.1-Fc (Fc fusion), the Kd with CD19 antibody FMC63 [1] came to 0.103 nM. This substance also yielded an EC50 in [2] of 1.9 nM.
In turn, “purchased WT etCD19-His (from UniProt P15391 20-291)” returned a Kd with CD19 antibody FMC63 [3] of 3.88 nM.
For “CD19.1 (immobilized on plates or coated on beads; tagged version not stated) (from UniProt P15391 20-291)”, in assay [4], the maximum stimulation against TransAct at 1:100 dilution (fold stronger than TransAct) stood at 3.4.
In the assay with CD19 antibody FMC63 [3], “WT etCD19-His (Acrobiosystems) (from UniProt P15391 20-291)” came in with a Kd of 7.18 nM. This lies in the single-digit nanomolar range.
The term EC50 (read off the curve) denotes the concentration that produces a half-maximal response. In the assay with CD19.1-Fc (Human) [5], CD19 antibody FMC63 had a concentration for a half-maximal effect (EC50 (read off the curve)) of 4 ng/mL. Besides, the figures for the EC50 (with CD19.1-Fc (Human) [6]; in [10]; in the assay with CD19.1-His (Human) [17]) were 0.59 nM, 0.68 nM and 0.36 nM, respectively. Besides, the % of CD19.1 molecules bound by anti-CD19-FITC in the assay with CD19.1-His (Human) [7] amounted to 2.17%; with CD19.1-His (Human) [8] it was 0.76%; with CD19.1-His (Human) [9], 1.66%; with CD19.1-Fc (Human) [11], 1.21%; with CD19.1-Fc (Human) [13], 1.86%; with CD19.1-Fc (Human) [14], 0.7%. Also, the values for the % of CD19.1 molecules bound by anti-CD19-FITC with CD19.1-Fc (Human) [15] and with CD19.1-His (Human) [18] were 0.87% and 0.8%, respectively. In addition, the Moles of antibody per mg of beads (mol per mg of beads) amounted to 2e-12 with CD19.1-His (Human) [7]; 5.1e-13 in the assay with CD19.1-His (Human) [8]; 1.14e-12 with CD19.1-His (Human) [9]; 6e-13 in the assay with CD19.1-Fc (Human) [11]; 1e-12 in the assay with CD19.1-Fc (Human) [13]; 2.8e-13 with CD19.1-Fc (Human) [14]. Besides, the Moles of antibody per mg of beads (mol per mg of beads) with CD19.1-Fc (Human) [15] was determined as 4.1e-13; in assay [16] it was 1.3e-13; with CD19.1-His (Human) [18], 4.9e-13; with CD19.1-Fc (Human) [19] it was 4.6e-13. Also, the fold binding capacity (functional antigen density) against wtCD19 coated beads (times higher than wtCD19 coated beads) with CD19.1-Fc (Human) [12] is 3.5. The Percentage of CD19.1 or wt CD19 Fc molecules bound by anti-CD19-FITC (FMC63) in assay [16] stood at 0.37%; with CD19.1-Fc (Human) [19], 1.36%.
For the substance CD19.1-His (from UniProt P15391 20-291), the Kd in the assay with CD19 antibody FMC63 [1] turned out to be 3.18 nM. In addition, the EC50 in assay [2] worked out at 15.8 nM.
